Assay results from the nanobody polyreactivity screen of Harvey et al. (2022).

Experiment: yeast display, Sf9 membrane polyspecificity reagent, FACS + sequencing; frameworks hold sequencing errors
Outline: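 In a synthetic yeast display library (Saccharomyces cerevisiae BJ5465), nanobody expression was induced with galactose for 36–48 hours. FACS gates were set low and high (top ~1%) using anti-HA fluorescence for expression and streptavidin fluorescence for binding of the Sf9 membrane reagent. Each polyreactivity label is drawn from the gate of origin.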

Row | Sequence | polyreactivity (PSR sort gate)
1 | QVQLVESGGGLVQAGGSLRLSCAASGNTIKDYTMGWYRQAPGKERELVASINSGGSTNYADSVKGRFTISRDNPKNTVYLQMNSLKPEDTAVYYSAKRAWSDYNPIDYWGQGTQVTVSS | low polyreactivity
2 | QVQLVESGGGLVQAGGSLRLSCAASGSIFDRNAMGRYRQAPGKERELVAAITSGGSTYYADSVKGRFTISRDNAKNTVYFQMNSLKPEDTAVYYCNADTDPPVPLYYWGQGTQVNVSS | low polyreactivity
3 | QVQLVESGGGLVQAGGSLRLSCAASGSIFYKNAMAWYRQAPGKERELVAAITWSGGSTYYADSVKGRFTISRDNAKNTVYLHMNSLKPEDTAVYYCAAGLYRYRKYGYWGQGTQVTVSS | low polyreactivity
4 | QVQLVESGGGLVQAGGSLRLSSAASGFTFYWYAMGWYRQAPGKEREFVAAIDQSGGSTYYADSVKGRFTISRDNAKNTVYLQMNSLKPEDTAVYYCAARYILWDGYSWTEFDYWGQGTQVTVSS | low polyreactivity
5 | QVQLVESGGGLVQAGGSLRLSCAASGSIFFYYAMGWYRQAPGKEREFVAGITYSGGITYYADSVKGRFTISRDNGKNTVYLQMNSLKPEDTAVYYCDYGGGVYQYGYWGQGPQVTVSS | low polyreactivity
6 | QVQLVESGGGLVQAGGSLRLSCAASGIIFFRYAMGWYRQAPGKERELVAAISLSGGRTYYADSVKGRFTISRDNANNTVYLQMNSVKPEDTAVYYCNTLHRYSSQRYDYWGQGTQVTVSS | high polyreactivity
7 | QVQLVESGGGLVQAGGSLRLAVLPPDLPSTLNDMGWYRQAPGKERELVAAITRGGSTNYADSLKGRFTISRDNAKNTVYLQMNSLKPEDSAVYYCAAPYAGWGDGGDYWGQGTQVTVSS | low polyreactivity
8 | QVQLEESGGGLVQAGGSLRLSCAASGITFEAYAMGWYRQAPGKERELVAAIRSSGTSTYYADSVMGRFTISRDNAKNTVYLQMNSLKPEDTAVYYCNRARSSSRYDYWGQGTQVTVSS | low polyreactivity
9 | QVQLVESGGGLVQAGGSLRLSCAASGRTFLIYDMGWYRQAPGKVRELVAAIRDRGATTYYADSVKGRFTISRDNAKNTVYLHMNSLKPEDTSVYYCSARNGAYPALKEGDYWGQGTQVTVSS | high polyreactivity
10 | QVQLVESGGGLVQAGGSLRLSCAASGIIFSWYDMGWYRQAPGKERELVAAISYRGSTNYADSVKGRFTISLDNAKNTVYLQMNSLKPEDTAVYYCNGPRRQYEYDYWGQGTQVTVSS | high polyreactivity
11 | QVQLVESGGGLVQAGGSLRLSCAASGSTFDKYAMGWYRQAPGKDRELVAAITWGGGSTYYADSVKGRFTISRDNAKNTVYLQMNSLKPEDTAVYYCAAEQGSSVLYDSWGQGTQVTVSS | low polyreactivity
12 | QVQLVESGGGLVQAGGSLRLSCAASGSTFYRYAMGWYRQAPGKERELVATITNSGGSTYYADSVKGRFTISRDNAKYTVYLQMNSLKPEDTAVYYCARVRSRNTGYYYWGQGTQVTVSS | high polyreactivity
13 | QVQLVESGGGLVQAGGSLRLSCAASGSILRSYAMGWYRQAPGKERELVAVINGSGGRTYYADSVKGRFTISRDNAKNTVYLQMNSLKPEDTAVYYCNKRYRFTGIRDPFDYWGQGTQVTVSS | low polyreactivity
14 | QVQLVESGGGLVQAGGSLRLSCAATGRTLVLYAMGWYRQAPGKERELVAAITWSGDSTYYADSVKGRFSISRDNAKYTVYLQMKSLKPEDTAVYYCAATYLNAKRGLRYDYWGQGTQVSVSS | low polyreactivity
15 | QVPLVESVGGLVQAGGSLRLSCAASGRIFRANAMGWYRQAPGKEREFVAAINFSVSSTYAYSVKGRFTISRDNAKNTVYLQMNSLKPEDTAVYYCAATPTREGEYWGQGTQVTVSS | low polyreactivity
16 | QVQLVESGGGLVQAGGSLRLSCAASGSIFNAYVMGWYRQAPGKERELVAAISRSGGRTYYADSVKGRFTISRDNAKNTVYLQMNSLKPEDTAVYYCAADYGGPYGQLDYWGQGTQVTVSS | high polyreactivity
17 | QVQLVESGGGLVQAGGSLRLSCAASGLIFGTYAMGWYRQAPGKERELVATITRGGGSTYYADSVKGRFTISRDNAKNTVYLQMNSLKPEDTAVYDCAKTYFYGVRRFNYWGQGTQVTVSS | high polyreactivity
